Test results taken from patent US7846710B2, “Cell comprising an intein for the production of a cyclic peptide” (The Penn State Research Foundation, priority 1998, dated 2010).

Molecular target: T1, recombinant Streptomyces antibioticus tyrosinase (Streptomyces antibioticus, UniProt P07524)
T1 construct: expressed in transfected cells; host or cells: E. coli XL1-Blue co-transformed with pDIM-NY (pDIMN-Y) and pARCP-p or pARCP2-6H
T1 sequence (P07524 whole entry, looked up): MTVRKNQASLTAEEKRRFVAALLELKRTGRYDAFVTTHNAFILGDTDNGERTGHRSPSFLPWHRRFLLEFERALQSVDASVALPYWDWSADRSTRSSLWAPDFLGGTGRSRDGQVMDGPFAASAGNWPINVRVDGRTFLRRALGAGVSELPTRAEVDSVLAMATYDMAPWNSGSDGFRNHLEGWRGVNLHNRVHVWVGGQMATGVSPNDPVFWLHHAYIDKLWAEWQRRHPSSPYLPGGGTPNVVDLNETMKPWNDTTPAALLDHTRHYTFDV
Assay: In vivo assay on FeCuY plates to detect tyrosinase inhibition (pigment formation) by co-expressed cyclic peptide
Type: cell-based, Escherichia coli XL1-Blue
Conditions: co-expression in tyrosinase expressing XL1-Blue cells on FeCuY plates, L-(+)arabinose (0.5%) induction
Description: FIG. 7 is a photograph of FeCuY plates used in an in vivo assay to detect tyrosinase inhibition by pseudostellarin F.
The tyrosinase gene (including ORF 438) from Streptomyces antibioticus (Berman et al, Gene 37:101, 1985) was amplified with Vent-polymerase from pIJ702 (ATCC no. 35287) with primers introducing 5′
Ndel and 3′ EcoRI restriction sites. The PCR product was digested with Ndel and EcoRI and ligated into similarly digested pDIMN2 (Ostermeier et al, supra) to generate pDIMN-Y. Transformed ligation mixtures were grown at ambient temperature for 5 days, and colonies that expressed tyrosinase were identified by pigment formation on FeCuY plates [LB agar plates containing ampicillin (200 ug/ml), FeCI3.6H2O (0.2 mM), CuS04.5H2O (0.2 mM), L-tyrosine (0.3 mg/ml, Y) and isopropyl-B-D-galactoside (1 mM)] (Della-Cioppa, G. et al., Biotechnology 8:634, 1990).
Pseudostellarin F production was readily detected in vivo through inhibition of recombinant Streptomyces antibioticus tyrosinase (FIG. 7). In the experiment shown in FIG. 7, XLI-Blue cells were co-transformed with pDIM-NY and either pARCP2-6H (a & b) or pARCP-p (c & d). The cells were plated on FeCuY plates with chloramphenicol (50 ug/ml), either without (a & c) or with (b & d) L-(+)arabinose (0.5%).

Substance	tyrosinase inhibition (pigment formation)
cyclo-[CHMHHHHHHGAGAA] (backbone cyclized) [cyclic peptide from pARCP2-6H, unrelated cyclic peptide encoded by plasmid pARCP2-6H, used as negative control]	failed to inhibit tyrosinase
cyclo-[Ser-Gly-Gly-Tyr-Leu-Pro-Pro-Leu] (SGGYLPPL; backbone cyclized; printed: Ser-Gly-Gly-Tyr-Leu-Pro-Pro-Leu) [pseudostellarin F, backbone cyclic peptide produced in E. coli from pARCP-p by intein-mediated cyclization]	dramatically reduced pigment formation
